Source: US9944954B2, “Glycerol 3-phosphate dehydrogenase for butanol production” (BUTAMAX ADVANCED BIOFUELS LLC, priority 2013, dated 2018)

How the values were obtained:
[1] = system: NC(=O)C1=CN([C@@H]2O[C@H](COP(=O)(O)OP(=O)(O)OC[C@H]3O[C@@H](n4cnc5c(N)ncnc54)[C@H](O)[C@@H]3O)[C@@H](O)[C@H]2O)C=CC1; assay: cells, lysate or membranes named; settings: pH 6.8; 30.0 °C
[2] = system: NC(=O)C1=CN([C@@H]2O[C@H](COP(=O)(O)OP(=O)(O)OC[C@H]3O[C@@H](n4cnc5c(N)ncnc54)[C@H](OP(=O)(O)O)[C@@H]3O)[C@@H](O)[C@H]2O)C=CC1; assay: cells, lysate or membranes named; settings: pH 6.8; 30.0 °C
[3] = system: E. coli gpsA (glycerol-3-phosphate dehydrogenase); settings: cited from earlier work; for affinity for the cofactors NADH and NADPH: Edgar and Bell, JBC 255:3492-7 (1980)
[4] = system: Saccharomyces cerevisiae GPD1; settings: read-out: NADH KM; Albertyn et al. 1992; cited from earlier work
Leishmania mexicana GPD = settings: read-out: NADH KM; Marche et al, 2000; cited from earlier work
Dunaliella viridis GPDH2 = settings: read-out: NADH KM; He et al, 2009; cited from earlier work
Jaculus orientalis GPD = settings: read-out: NADH KM; Berrada et al, 2002; cited from earlier work
[5] = system: Drosophila melanogaster GPDH1 (flight muscle); settings: read-out: NADH KM; Niesel et al, 1982; cited from earlier work
Dunaliella viridis GPDH1 = settings: read-out: NADH KM; He et al, 2009; cited from earlier work
[6] = system: Saccharomyces phosphatase GPP2; settings: Norbeck, JBC 271:13875-81 (1996); cited from earlier work
[7] = system: Saccharomyces phosphatase GPP1; settings: Norbeck, JBC 271:13875-81 (1996); cited from earlier work
[8] = substrate: NC(=O)C1=CN([C@@H]2O[C@H](COP(=O)(O)OP(=O)(O)OC[C@H]3O[C@@H](n4cnc5c(N)ncnc54)[C@H](OP(=O)(O)O)[C@@H]3O)[C@@H](O)[C@H]2O)C=CC1; assay: purified protein, by the assay type; settings: pH 6.8; 30.0 °C
[9] = substrate: NC(=O)C1=CN([C@@H]2O[C@H](COP(=O)(O)OP(=O)(O)OC[C@H]3O[C@@H](n4cnc5c(N)ncnc54)[C@H](O)[C@@H]3O)[C@@H](O)[C@H]2O)C=CC1; assay: purified protein, by the assay type; settings: pH 6.8, 30.0 °C
[10] = substrate: NC(=O)C1=CN([C@@H]2O[C@H](COP(=O)(O)OP(=O)(O)OC[C@H]3O[C@@H](n4cnc5c(N)ncnc54)[C@H](O)[C@@H]3O)[C@@H](O)[C@H]2O)C=CC1; assay: cells, lysate or membranes named; assay type: biochemical, Saccharomyces cerevisiae; settings: E. coli expressed, 30.0 °C
Description: Glycerol-3-phosphate production was measured by LC/MS.
The data used in this section are provided in Table 11, and includes measurements of the metabolic products and the in vitro measurements of GPD as described above.

[11] = substrate: NC(=O)C1=CN([C@@H]2O[C@H](COP(=O)(O)OP(=O)(O)OC[C@H]3O[C@@H](n4cnc5c(N)ncnc54)[C@H](OP(=O)(O)O)[C@@H]3O)[C@@H](O)[C@H]2O)C=CC1; assay: cells, lysate or membranes named; settings: pH 6.8; 30.0 °C; remark: listed apart in the source
[12] = substrate: NC(=O)C1=CN([C@@H]2O[C@H](COP(=O)(O)OP(=O)(O)OC[C@H]3O[C@@H](n4cnc5c(N)ncnc54)[C@H](O)[C@@H]3O)[C@@H](O)[C@H]2O)C=CC1; assay: cells, lysate or membranes named; settings: pH 6.8; 30.0 °C; remark: listed apart in the source
[13] = other: GPD1 WT_y, crude cell extract, pH 6.8, 1 mM dihydroxyacetone phosphate

## Rickettsia prowazekii str. BuV67-CWPP GPD (gene SEQ ID NO: 16; SEQ ID NO: 192) (Rickettsia prowazekii str. Madrid E)
[1]
  Km: 664 µM
[2]
  Km: 4 µM

## NC(=O)C1=CN([C@@H]2O[C@H](COP(=O)(O)OP(=O)(O)OC[C@H]3O[C@@H](n4cnc5c(N)ncnc54)[C@H](OP(=O)(O)O)[C@@H]3O)[C@@H](O)[C@H]2O)C=CC1 [NADPH, reduced nicotinamide adenine dinucleotide phosphate]
[3]
  affinity for the cofactors NADH and NADPH: substantially the same affinity

## NC(=O)C1=CN([C@@H]2O[C@H](COP(=O)(O)OP(=O)(O)OC[C@H]3O[C@@H](n4cnc5c(N)ncnc54)[C@H](O)[C@@H]3O)[C@@H](O)[C@H]2O)C=CC1 [NADH, reduced nicotinamide adenine dinucleotide]
[3]
  affinity for the cofactors NADH and NADPH: substantially the same affinity
[4]
  Km: 23 µM
Leishmania mexicana GPD
  Km: 24 µM
Dunaliella viridis GPDH2
  Km: 59.2 µM
Jaculus orientalis GPD
  Km: 32 µM
[5]
  Km: 78 µM
Dunaliella viridis GPDH1
  Km: 58.9 µM

## O=P(O)(O)OC[C@H](O)CO [glycerol-3-phosphate]
[6]
  Michaelis constant: 3.9
[3]
  product inhibition by glycerol-3-phosphate: product inhibited
[7]
  Michaelis constant: 3.1

B1: Beggiatoa alba GPD (SEQ ID NO: 17; SEQ ID NO: 193) (Beggiatoa alba B18LD) (protein)
chain: MLSPSALLVLGAGSWGTALALALARRQYPIYLWGKDPAHVHTLQIQRCNQRFLPNAVFPDNLYAITDFVTLMPIVEDIIIVVPSHGFRETLKKIKPYITKNHRLCWATKGLEYQTGLLLHEVARAELGDNIPLAVLSGPSFAGEVAAALPTAVTIAAQDIENAHHVAQLFHQASFRAYTSNDMVGVQIGGAVKNVIAIAAGIADGLKMGANTRAALITRGLSEIVRLGIALGGQRETFMGLAGLGDLVLTCTDNQSRNRRFGYALAQGISLEAAQAQVGQVVEGIHAATITHQLAQQHGVEMPIVNHVNQVLTGQSTPLEAAQALLAREPKPEML
[8]
  Km: 6 µM
[9]
  Km: 101 µM

B2: Saccharomyces cerevisiae GPD1 (glycerol-3-phosphate dehydrogenase), wild type, SEQ ID NO: 195 (Saccharomyces cerevisiae S288C) (protein)
chain: MSAAADRLNLTSGHLNAGRKRSSSSVSLKAAEKPFKVTVIGSGNWGTTIAKVVAENCKGYPEVFAPIVQMWVFEEEINGEKLTEIINTRHQNVKYLPGITLPDNLVANPDLIDSVKDVDIIVFNIPHQFLPRICSQLKGHVDSHVRAISCLKGFEVGAKGVQLLSSYITEELGIQCGALSGANIATEVAQEHWSETTVAYHIPKDFRGEGKDVDHKVLKALFHRPYFHVSVIEDVAGISICGALKNVVALGCGFVEGLGWGNNASAAIQRVGLGEIIRFGQMFFPESREETYYQESAGVADLITTCAGGRNVKVARLMATSGKDAWECEKELLNGQSAQGLITCKEVHEWLETCGSVEDFPLFEAVYQIVYNNYPMKNLPDMIEELDLHED
notes: also native or codon-optimized GPD1 in yeast PNY2145-derived strains (T12); full length 391 aa
[10]; [13]
  Km: 13 µM
  Vmax: 9000 µM/min
[10]; other: one experiment, in parallel with Drosophila isoform C, pH 6.8
  Km: 5 µM

B3: Archaeoglobus fulgidus DSM 4304 GPD (gene SEQ ID NO: 14) (Archaeoglobus fulgidus DSM 4304) (protein)
chain: MIVSILGAGAMGSALSVPLVDNGNEVRIWGTEFDTEILKSISAGREHPRLGVKLNGVEIFWPEQLEKCLENAEVVLLGVSTDGVLPVMSRILPYLKDQYIVLISKGLIDFDNSVLTVPEAVWRLKHDLRERTVAITGPAIAREVAKRMPTTVVFSSPSESSANKMKEIFETEYFGVEVTTDIIGTEITSALKNVYSIAIAWIRGYESRKNVEMSNAKGVIATRAINEMAELIEILGGDRETAFGLSGFGDLIATFRGGRNGMLGELLGKGLSIDEAMEELERRGVGVVEGYKTAEKAYRLSSKINADTKLLDSIYRVLYEGLKVEEVLFELATFK
[11]
  Km: 7 µM
[12]
  Km: 5 µM

B4: Drosophila melanogaster glycerol 3 phosphate dehydrogenase, isoform C (gi: 22945708) (Drosophila melanogaster) (protein)
chain: MADKVNVCIVGSGNWGSAIAKIVGANAAALPEFEERVTMFVYEELIDGKKLTEIINETHENVKYLKGHKLPPNVVAVPDLVEAAKNADILIFVVPHQFIPNFCKQLLGKIKPNAIAISLIKGFDKAEGGGIDLISHIITRHLKIPCAVLMGANLANEVAEGNFCETTIGCTDKKYGKVLRDLFQANHFRVVVVDDADAVEVCGALKNIVACGAGFVDGLKLGDNTKAAVIRLGLMEMIRFVDVFYPGSKLSTFFESCGVADLITTCYGGRNRRVSEAFVTSGKTIEELEKEMLNGQKLQGPPTAEEVNYMLKNKGLEDKFPLFTAIHKICTNQLKPNDLIDCIRNHPEHMDTSIMPSPKL
[9]; other: one experiment, in parallel with Saccharomyces GPD1, E. coli expressed
  Km: 5 µM

B5: Kangiella koreensis GPD (SEQ ID NO: 18; SEQ ID NO: 194) (Kangiella koreensis DSM 16069) (protein)
chain: MSAQLSFAVLGAGSYGTALAVLLARNGHSVQLWARNSQHVVEMQQAKQNTKYLPDVAFPDNLSVTDQIDVALKHHPIILVAVPSHAFRDTLYLIKPLVNQDSKLVWASKGLDPDSGDLLGNVLKNILGDNMPHAILSGPTFAKEMAIGMPTAITLAANNDDFAEQLALALHNERFRVYTSDDIVGVQVGGAVKNVVAIGAGIADGLGYGANARTALITRGLAEMTRLGVAAGGKQETFNGMAGMGDLVLTCTDNQSRNRRFGLALGKGANRDEAEHAIGQVVEGVRNAKEVKMLAERLGVEMPISDAIYRIIYEGVDARQAAHELLTRDLKSEG
[8]
  Km: 1 µM
[9]
  Km: 2018 µM
